From publication PMC12445222
Changes are numbered by the printed parent chain. Numbers in names are those of the source.

Legend:
[1] = substrate: ClCCCl; experiment: ITC initial rates, steady-state fit with substrate inhibition; format: biochemical, Xanthobacter autotrophicus; conditions: 100 mM glycine buffer, pH 8.6, 15 °C
[2] = substrate: ClCCCl; experiment: ITC initial rates, steady-state fit; format: biochemical, Xanthobacter autotrophicus; conditions: 100 mM glycine buffer, pH 8.6, 15 °C

B1: haloalkane dehalogenase (DhlA) (Xanthobacter autotrophicus) (protein)
chain: MINAIRTPDQRFSNLDQYPFSPNYLDDLPGYPGLRAHYLDEGNSDAEDVFLCLHGEPTWSYLYRKMIPVFAESGARVIAPDFFGFGKSDKPVDEEDYTFEFHRNFLLALIERLDLRNITLVVQDWGGFLGLTLPMADPSRFKRLIIMNACLMTDPVTQPAFSAFVTQPADGFTAWKYDLVTPSDLRLDQFMKRWAPTLTEAEASAYAAPFPDTSYQAGVRKFPKMVAQRDQACIDISTEAISFWQNDWNGQTFMAIGMKDKLLGPDVMYPMKALINGCPEPLEIADAGHFVQEFGEQVAREALKHFAETE
**Q.** Which results are given for B1?
**A.** Km [1]: 60 ± 10 µM; kcat [1]: 0.27 ± 0.01 s⁻¹

B2: haloalkane dehalogenase (DhlA) (Xanthobacter autotrophicus; F128L) (protein)
chain: B1 chain with F128L
**Q.** Which Km [1] does the source give for B2 here?
**A.** 700 ± 30 µM

**Q.** What about the kcat [1] of the same protein?
**A.** 0.05 ± 0.01 s⁻¹

B3: haloalkane dehalogenase (DhlA) (Xanthobacter autotrophicus; F128L/L262I) (protein)
chain: B1 chain with F128L, L262I
**Q.** How did the Km [1] turn out when B3 was run?
**A.** 1080 ± 100 µM

**Q.** And the kcat [1]?
**A.** 0.36 ± 0.02 s⁻¹

B4: haloalkane dehalogenase (DhlA) (Xanthobacter autotrophicus; F128L/L262V) (protein)
chain: B1 chain with F128L, L262V
**Q.** Which Km [2] does the source give for B4 here?
**A.** 1040 ± 60 µM

**Q.** And the kcat [2]?
**A.** 0.18 ± 0.01 s⁻¹

B5: haloalkane dehalogenase (DhlA) (Xanthobacter autotrophicus; L262V) (protein)
chain: B1 chain with L262V
**Q.** Which Km [1] does the source give for B5 here?
**A.** 250 ± 30 µM

**Q.** What about the kcat [1] of the same protein?
**A.** 0.25 ± 0.01 s⁻¹
